Values of other authors as cited in paper PMC9445421.
Read-outs that look alike come from different tables or passages of the source.

Assays:
TrkB (Homo sapiens) [1] = target: TrkB (Homo sapiens) (UniProt Q16620)
TrkB (Homo sapiens) [2] = target: TrkB (Homo sapiens) (UniProt Q16620); remark: listed apart in the source

Sequence of UniProt Q16620 (Q16620 32-430): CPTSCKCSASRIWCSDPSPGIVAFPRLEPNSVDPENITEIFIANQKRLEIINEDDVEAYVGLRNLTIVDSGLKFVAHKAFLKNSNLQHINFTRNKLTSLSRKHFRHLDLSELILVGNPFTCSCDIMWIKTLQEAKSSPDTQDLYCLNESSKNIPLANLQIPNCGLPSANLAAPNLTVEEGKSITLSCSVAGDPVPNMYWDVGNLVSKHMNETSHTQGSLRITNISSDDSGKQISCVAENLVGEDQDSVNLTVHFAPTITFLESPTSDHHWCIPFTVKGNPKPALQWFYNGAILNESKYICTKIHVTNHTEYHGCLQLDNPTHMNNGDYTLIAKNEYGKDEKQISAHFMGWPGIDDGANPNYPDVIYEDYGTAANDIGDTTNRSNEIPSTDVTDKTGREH

Row | Kd (TrkB (Homo sapiens) [1]) [nM] | Kd (TrkB (Homo sapiens) [2]) [nM] | Substance
1 | 0.79 | – | BDNF (from UniProt P23560)
2 | – | 0.26 | NT4 (from UniProt P34130)
